From the supplement of paper PMC12636428

test system: Saccharomyces cerevisiae; test: transcriptional activation domain activity (GFP:mCherry ratio, weighted mean of sorted bins, harmonized to initial dataset scale) (arbitrary fluorescence ratio units); higher = stronger transcriptional activation; details: beta-estradiol 1 µM; induction time 4 h
Description: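 53-aa protein tiles (fungal proteins plus yeast TF control tiles) fused C-terminally to a DBD-estrogen-binding domain-mCherry synthetic TF, integrated in S. cerevisiae (URA3 locus) with a GFP reporter. Cells were induced with 1 uM beta-estradiol for 4 h at 30 C, FACS-sorted into 8 bins by GFP:mCherry ratio and barcodes sequenced. Activity is the read-weighted mean bin fluorescence (GFP:mCherry), averaged over barcodes (median 12); tiles under 50 reads were discarded. New active-learning values were harmonized by linear fit onto the scale of the initial (Hummel et al.) dataset. The assay saturates at low and high signal.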

Row | Sequence | transcriptional activation domain activity
1 | RIAKRRRKDGEPMLYAPDELKEGRWAPKELIKTMARLRRSIQIVLCLSLLSGF | 77000
2 | IVFLFLCFAGFWMCVVCLLLLLYTAVPLIPPHSSSSFDSFGLFMLLLVSCMRF | 48000
3 | MNQTSCFFSAFFLFALFLSFPSFLLPSFFLLFLLFYFFPSYLLLCLFSLIFYK | 57200
4 | CILVYLCHVSYLILLPRFDYVYNIIFNMVIGLTHNALWLLYSLPTSISLFRRF | 53500
5 | KKRGKRTTNGKESGRSSKKARAGSQPKPRTNARTANAAAEDDDDDDEEDDHEG | 46700
6 | MFFKMMTTQDIQFVNVCFKLHSTLPMLFIGGIFLIIHCTSSSAIKGRICTAAF | 34100
7 | VREWHVDLSFSSFGKTLLRELESLLERVRANWLEEVTVRTIALICSRLLASTI | 60800
8 | SDSEEEDDAEKEDEEEEQRPKKTVKVEEVVKKAFGADGATVWVGQLSYEATSD | 32500
9 | MNYLELSLVILTCLWDILLVVTFCSYRRIFRRVNMVNIMTISLLKHLSVFCLF | 52300
10 | MVIMYKFVFYTGFDRFVFFFWDFFFFFFFFCMLSMGYFSYFIFILSLLESVLV | 26200
11 | TPQCPPTPTPPPAPASKSRPPPHTPTSTRARNNPPPPSCACGGCTRATSGSRR | 33800
12 | IGSLLCERADVIARLVSYLLRRYAIDGFRTILLWLNDWPVGLKLNYHLASHFC | 56800
13 | MACLVSGIGWCLLYFTCMYLLLIYYILSLFYPPLASCNSFSFFFLSFFFFAGR | 59100
14 | LQSSLLHPCAFYVRLLISILIEYISLPCLTIDFFFFFIFRVTFPIFFLTFFYL | 61400
15 | KGANQAVACAKLSRSRPQPSSSTSSSSTEAGANDAETHATAHVSMLGAVGDDS | 18700
16 | MMLVSSRSFLYWYGVSLTLLLLSLEFVWSFLLFFTWLVTLSLFPFLSSVSHCH | 60200
17 | EEGASQRANQRGKGEEGASQTANQRGKGEEGNQRRKGRKGAKGGRGRKGAKGG | 28500
18 | VACAVLIAVSIFATIYVVLTSLPVIFQQCPFQTPLSSIIWYLGHLLVIASLSL | 28400
19 | MIGDGGRVFRVHSSLSLSFVIFFFSVLLFFFCPFSFVFYCIYAFLVPGLVVLV | 35200
20 | ICIIPFVNGFLCEPILPLVFFCSSLTLSESWFIFCIGLVVGLWLYTLVAGVCF | 37300
21 | LSIFSWMSWIAPESLNLSTITGFNNGLGINPWPTWDWNTLLFDAADPLMIPFF | 39700
22 | LSHFLAGLHHSVLLAYFLYFFVLPFSLLCYSIFLLYFSFGLDGIILLFYYFIF | 37100
23 | MIPSSAPLNFFLPFPFQFWFFFDFFFLTVEQPFFLCVVFFLLAFYVMLLYFFI | 17900
24 | KISVCWLWGLDSLHLAFCIYMMYWYLITNFCVVAELGCFNIQTFFASKAFVIL | 49800
25 | RASHNASGFPNFLDTSCSSSFDDHFIFTNNLPFLNNNSINNNHSHNSSHNNNS | 56800
26 | MMAPSCSICLPLVLPPLLCQIFSPLILSLFPYPLHCLCMLFFQLIYMPLFFFF | 68200
27 | LNMLGLALAASGHFPYAVKYDGAIVVANFNMAILMRNEVFGRLLYLLVNTLFA | 71600

Row | Sequence | transcriptional activation domain activity
28 | HLLDTNCLLLILKMFGLQEVTNSVVSKVDSPENNFFRYCLMNYSKNPQPMRPE | 39100
29 | MMLPLVQGWGSTDGFFIFIFIFFIFAFLFNLSIYRSFFFLPFLFFYMEVLLRL | 73300
30 | MFFILASFSYYYYTHHISLDKVGNFLCRFIHPVFLCSIFIFPFLLYLFKIIYY | 39100
31 | HPLIDVSEEAFIQLAYLAVALAKHLCILTRVTYYQNVKGLSSSHFMYLFYICL | 40200
32 | MIYACGLICFYFFFFFLYFFPFCISFHIFLFSFLYPSCSFSFLQHCQVGTGVC | 48900
33 | HKLVVQVLQSQLLILKILDLCVTFHWHSHRERYLGIGYPLNGSASSLSSNAPY | 41400
34 | NKDGNGDGGEGKDKDEENRSGNRDGKRERGRKEDRERVAGSSGGGAKGLKRKR | 42600
35 | MERNGNVVWILFWHFHLLFFWAMEKSFDFLHSKTLSPFWFITYFLYLLILFYL | 31900
36 | LCPLFPPCFLVLHHILGFLYPRFFLFVFSLVDCLLYFSLSFLVCVRFCLCLGL | 78000
37 | HLYQISLLLSIFVFFSQGLCRFLYYLPPVPFLTHISSTKLWVWIGLVACLTLK | 65800
38 | APRARPAPAQRVGPRARAAEQLHRADGQHRERARRQHGRRHPPAAGAAPAVRL | 52800
39 | YVKSRGYKTIIRFFPHEVADLELARACMRGAAREPRQWALRYAALLWLALICM | 68700
40 | DAFADGDGDATVTEGETSEKPKKARKKRAKKDTGEDDAEAKPKKKAKRKAKAA | 14500
41 | QKMQKSGGFVNINVFGFVFIIAVSCVVVTLDITLLKFLIFISEFQRLTHLSAR | 45400
42 | MINKKTNPCKILFDPFSSFLFGNLILLSLFLFVDVIFSLPCFLYVCFVFFPSL | 69200
43 | LQHLVVPILFLGPLYATYLNQTLPFQAFWDYDEYVLRKYFSFMGLRTYIIGPI | 52300
44 | VQLSFYRNKIFLTILNYCSGLFVLLFFFYSLFRSVILQNSSLLMLYCACWIYI | 60600
45 | MHTSRAAWIHSKPADKAEAVAPHPHIAESGVGHSSHVGTHPKLSGDPNSPWRE | 45900
46 | MDGVFGVCFLCFISVFYLCFIAFFFSILTTTLLLWLRWGAMFLSFFLSCYLFF | 32700
47 | SNDSSDEEDRKSRRKSKKKAKDRDASKERSKKDDKGKKKSRTSKGRSRKDEDS | 18600
48 | GEGEAKTKKRNKRSKAPVEGEAAETPAAATTEGEEAAAPAAPKKEKKPRKPRA | 8960
49 | GVDPATKEKKVPSDVLEEPPTLKESLQVLYKYCILCFNLNRKRVVLQFIASFL | 73300
50 | LYECLKYMLFTFAGSTHTNYMAYLLETIINLELESSPGLKEALLLCLLINLTG | 48700
51 | PNSSTSMDWLDNVIYTNRFVSGDDGSNSKTKNLDSNMFSNDFNFENQFDEQVS | 91700
52 | LYSRYCLLLICIFFVTLQFTTVRFTVRSFYFNTLSFFYLSFWCPQIYRNIMRN | 53600
53 | EVRELHLIDRTLDELRTVQLTLTMLHLICAPKPVFHLLRSVVLQCAEPKGLLT | 46300
54 | PLLFLLNRLPIHPPLLIVPVLLWFYCRLTIYSILFWLNNLMVQKLSLLIMSIF | 34500

Row | Sequence | transcriptional activation domain activity
55 | KIHLVNLSQVVVFFIHRILFGIIPLFEIETCAYFPLLISLWHLTYLLFYVVMF | 80700
56 | MYHISCWFIFFHLLMSHIFIFIFIFLLLLFYKCIIFLFLYTYFFYFLVFSRLL | 25700
57 | MRIRYEMSWGFLLSFLLSNGRRKIDHGTSSLRMTLGFLIAHRVYMMIILNFYT | 47200
58 | HSITNFELVEDAPHQVGFSTPQMTAKQLMESVSELDLPPLTLDEPPQAIKFNL | 75900
59 | LVPWRPQKVLWLKVFYLLTRYLAFVDIPINLYSYLGFGISLPACQVLFSWYCW | 56100
60 | MLFPCGVLFLSVFSISDTYVAFFFFFFFSFGWSFVSIGFLLFTIFFLGISFFF | 32300
61 | AVGYIWYIPFYHYNYSILRAGMMTNFFWASLCLVYSNIRPYSEIGIVYLLLCP | 69800
62 | MARNIYVIYIPKSICCSLPLSVPLSLLPLPSLPLFPSLTSTLLFFVLFHFFLL | 49600
63 | NYVMLCSVYTTVHIHKHGRDAWKLMIRERSWKYILFAMADLQGNLFVLYAFRN | 59300
64 | INSTVHNLCELVLLPELFGFCCFSMRFFVFIDLLGTLILPATVVYLLYLIIVV | 26100
65 | ADSARGGDADAKYRDRDRQRQTETETDRQTKTERDTQRQRQRHRHTHTHSPVQ | 37200
66 | YFLAKMLLVWIVLALQTCEVSFSFVDTEHAYRGGVLRFVETLVKWAMEQNMSH | 45400
67 | TGPTNVGLIILIIVSFFQFNFFLPVHQSFAPKLLKHHYIIYRMICSQLSYLVL | 60900
68 | SERLKNTGASGERAREGISINAGLASLGKVISQLSSRQPGAHVSYRDSKLTRL | 48800
69 | SSHCLLENDMFVFFANCSVNQLAMGEDMHHILRLCYSAELIKVLLTYLGRSTF | 56400
70 | GPTIRHEMNLFHVYGRRNPHLRLMISLIYVWMRSWGVKEMSPRTLCLLLIRFF | 48600
71 | LIFSLKVLVMLICIIMIEFYITYAVAVGYIYAVAILEPFRPQLAVAFTWIRPV | 66600
72 | GKKKGKRGKGKGKRGRGKGRGEREGWQGKAAGKEGAGKKGAGEGEQGKGSRGK | 44300
73 | KQYCVRPNSGRIEPGKDVEVQILLQAMKEDPPPDAKCRDKFLVQSVAVSADKE | 47000
74 | KEEEQKGEKEEDESEKETEKEEKKEEKKEKRKLMRRKPKAEELESEASEDERE | 21700
75 | INVTSPPPIDYLSIGDFSFFSFETTDLPFSIDSGVLLPSLSSFEQPIFDFNFI | 143000
76 | NRKTIGKQDPYCAARLGKEAKKTETDRRGGQTPRWDQELRYTVHDSPDYYQLK | 31200
77 | ETKGASGEGGKSTSESGSASSSSSKGEGKAAGEQGSSGSSSGSSSESGSKEKT | 30100
78 | GQSRGTTSGTIATGLCAGLSRGIAESVELQKRIDFALAGYFRYIRWWRLGFMS | 69900
79 | ESASAAEEPAAKSKRGKKSQAEPEEEELSAVDEEHEPAPKSKRSKKSKAAVET | 13800
